target: T1, transformation of SerpinB3 to Pso p27 with chymase (Homo sapiens, UniProt P29508); assay: Test of peptides: inhibition of chymase transformation of SerpinB3 to Pso p27, SDS-gel-electrophoresis; type: biochemical; settings: SerpinB3 2 μg in 35 μl PBS, peptide 5 μl (10 mg/ml) 1 hour at 37C°, then 1 μl chymase over night at 37C°
T1 construct: made in house; host or cells: Escherichia coli BL21 (DE3) RIPL (Stratagene)
T1 sequence (P29508 1-390): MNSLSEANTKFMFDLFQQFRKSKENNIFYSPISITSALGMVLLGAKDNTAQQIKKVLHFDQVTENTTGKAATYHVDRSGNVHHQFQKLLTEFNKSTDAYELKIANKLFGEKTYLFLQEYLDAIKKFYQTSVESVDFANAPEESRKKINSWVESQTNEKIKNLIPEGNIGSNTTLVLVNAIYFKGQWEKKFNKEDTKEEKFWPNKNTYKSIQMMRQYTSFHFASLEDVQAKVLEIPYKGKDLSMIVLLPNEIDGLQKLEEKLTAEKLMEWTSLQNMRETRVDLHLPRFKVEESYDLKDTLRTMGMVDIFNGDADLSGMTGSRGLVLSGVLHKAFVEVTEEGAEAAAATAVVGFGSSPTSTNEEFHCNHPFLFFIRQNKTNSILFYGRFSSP
Experimental: In this Example, peptides were tested in order to find out whether they are able to prevent and/or inhibit the formation of Pso p27. The peptides were purchased from Biomatik Corporation, 4 Third Ave, Kitchener, Ontario, N2C 1N6, Canada, and analyzed with respect to prevention and/or inhibiting potential. The following methods were used:
Expression vector pMCSG7 Serpin B3 (Clone ID: HsCD00343153) was used. Recombinant SerpinB3 was expressed in Escherichia coli BL21 (DE3) RIPL (Stratagene) and purified as described by Lysvand H, Helland R, Hagen L, Slupphaug G, Iversen OJ., “Psoriasis pathogenesis-Pso p27 is generated from SCCA 1 with chymase”, Biochim. Biophys. Acta 1842 (2014) 734-738.
SerpinB3 solved in phosphate-buffered saline (PBS) (2 μg in 35 μl PBS) was incubated with a tripeptide or tetrapeptide 5 μl (10 mg/ml) for 1 hour at 37C°. 1 μl chymase was added and the mixture was incubated over night at 37C°. The solution was analyzed by SDS-gel-electrophoresis.
SDS-gel-electrophoresis was performed as described by Iversen O J, Lysvand H, Hagen L., “The autoantigen Pso p27: a post-translational modification of SCCA molecules”, Autoimmunity 44 (2011) 229-234.

Prevention and/or inhibition of the cleavage reaction of the serpin molecules SerpinB3/B4, and/or prevention and/or inhibition of the formation of Pso p27, effective:
Glu-Pro-Asp [EPD]
Asp-Lys-Pro-Asp (DKPD) [tetrapeptide]
Asp-Asp-Pro-Lys (DDPK) [tetrapeptide]
Glu-Asp-Leu-Pro (EDLP) [tetrapeptide]
Asp-Glu-Pro [DEP]
Asp-Leu-Glu-Pro (DLEP) [tetrapeptide]
Glu-Asn-Asp-Pro (ENDP) [tetrapeptide]
Asp-Pro-Leu-Glu (DPLE) [tetrapeptide]
Asp-Asp-Lys-Pro (DDKP) [tetrapeptide]
Asp-Pro-Glu [DPE]
Asp-Glu-Leu-Pro (DELP) [tetrapeptide]
Asp-Asp-Pro [DDP]
Asp-Pro-Glu-Asn (DPEN) [tetrapeptide]
Asp-Pro-Glu-Leu (DPEL) [tetrapeptide]
Glu-Asp-Asn-Pro (EDNP) [tetrapeptide]
Asp-Glu-Pro-Leu (DEPL) [tetrapeptide]
Asp-Glu-Pro-Asn (DEPN) [tetrapeptide]
Asp-Pro-Asn-Glu (DPNE) [tetrapeptide]

Reference: US20250134947A1, “TRI-, TETRA AND PENTAPEPTIDES, COMPOSITIONS THEREOF AND THEIR USE IN THE THERAPY OF PSORIASIS” (ENUMITA AS, priority 2021, published 2025)
